# Data reported in publication PMC6347194, “Protein refolding based on high hydrostatic pressure and alkaline pH: Application on a recombinant dengue virus NS1 protein” (PLoS ONE, 2019).
# How the values were obtained:
# [1] = molecular target: the molecule itself; assay: SEC; Superdex 200 10/300, elution in 50 mM CAPS pH 11.0; supernatant of NS1-IBs subjected to 2.4 kbar/0.4 kbar at pH 11.0, before dialysis
# [2] = molecular target: the molecule itself; assay: SEC
protein,measurement,setting,value
"dengue virus (DENV) non-structural protein 1 (NS1), recombinant, refolded from inclusion bodies (natural protein, also called DENV NS1) DSGCVVSWKNKELKCGSGIFITDNVHTWTEQYKFQPESPSKLASAIQKAHEEGICGIRSVTRLENLMWKQITPELNHILSENEVKLTIMTGDIKGIMQAGKRSLQPQPTELKYSWKTWGKAKMLSTESHNQTFLIDGPETAECPNTNRAWNSLEVEDYGFGVFTTNIWLKLREKQDVFCDSKLMSAAIKDNRAVHADMGYWIESALNDTWKIEKASFIEVKSCHWPKSHTLWSNGVLESEMIIPKNFAGPVSQHNYRPGYHTQTAGPWHLGKLEMDFDFCEGTTVVVTEDCGNRGPSLRTTTASGKLITEWCCRSCTLPPLRYRGEDGCWYGMEIRPLKEKEENLVNSLVTA",stoichiometry N,[1],2
same,stoichiometry N,[2],3
